Laboratory results published in the supplement of paper PMC9732359.
± gives the uncertainty stated by the source.

Experiment: protein stability index of a GFP-peptide fusion (yeast GPS) (PSI 1-4); higher = more stable; sorted into four equal gates, so the index is relative within each strain
How it was run: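 Mid-log yeast cultures in leucine-free medium, carrying a pooled plasmid library, were sorted into four equal gates by their GFP/Cherry fluorescence ratio. Each plasmid expressed Cherry along with GFP fused upstream of a tiled 17-residue yeast protein peptide. Plasmids recovered from each gate were PCR-amplified and Illumina-sequenced, with reads assigned to strains by barcodes. The protein stability index was obtained by summing each gate's read frequency weighted by its gate number.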

Sequence	protein stability index (doa10∆)	protein stability index (pdr5∆)	protein stability index (san1∆)	protein stability index (ubr1∆)
KLYKKIAKFERSEEEVT [YIL149C/MLP2]	3.25 ± 0.1	3.19 ± 0.078	3.17 ± 0.064	3.3 ± 0.078
RAQHVKKLATRPKCGDC [RPL34A]	3.06 ± 0.14	3.06 ± 0.12	2.69 ± 0.11	3.13 ± 0.084
SKVSKQQAKGAFQKVAA [RPL24B]	2.45 ± 0.042	2.97 ± 0.043	2.78 ± 0.036	2.65 ± 0.036
VSMYQNSSTSSTSNTPS [YDL088C/ASM4]	2.59 ± 0.064	2.6 ± 0.064	2.58 ± 0.074	2.69 ± 0.046
TSVDGKKRSKVRKETYS [HTB2]	3.04 ± 0.087	3.19 ± 0.14	3.15 ± 0.18	3.31 ± 0.067
ILNAKYTKETYQSRGID [RPN6]	2.96 ± 0.062	3.04 ± 0.066	2.97 ± 0.06	2.8 ± 0.056
LSLQRANVEILAVEDKP [CSL4]	1.35 ± 0.054	1.44 ± 0.061	1.67 ± 0.092	1.61 ± 0.044
RQPSLHKMSMMAHRVKV [RPO21]	2.2 ± 0.085	2.37 ± 0.073	2.81 ± 0.09	1.68 ± 0.082
TESIALSSMRFKPSQEP [RRI1]	2.85 ± 0.072	3.31 ± 0.064	3.3 ± 0.076	2.86 ± 0.057
ENISLAEFILKNRSTIF [BRR2]	2.77 ± 0.082	2.13 ± 0.082	1.67 ± 0.11	1.88 ± 0.054
YISFIKDDRFVPVRKFK [RPN2]	2.41 ± 0.048	2.82 ± 0.039	2.96 ± 0.041	2.85 ± 0.031
STEETTANTGTIGKRRT [TAF14]	3.07 ± 0.13	3.27 ± 0.1	3.38 ± 0.088	2.77 ± 0.12
PGFQLPNRITLTDHRKE [SRB8]	2.79 ± 0.079	2.98 ± 0.084	3.14 ± 0.069	3.22 ± 0.067
CLQDALDAIDDFIQLKQ [SSN2]	2.73 ± 0.081	2.6 ± 0.056	2.2 ± 0.063	2.92 ± 0.06
LDTLPSEFDSRVKAMEV [RPT5]	2.93 ± 0.085	3.11 ± 0.098	3.2 ± 0.068	3.36 ± 0.1
DSFSVPNRLVKELQYDN [PRE2]	3.02 ± 0.18	2.94 ± 0.24	3.09 ± 0.11	3.37 ± 0.29
TISSKPDILATDLIREK [YCS4]	–	2.54 ± 0.25	3.4 ± 0.26	3.09 ± 0.066
RSIRGSFTSQGTISIQL [MTR3]	2.78 ± 0.067	2.73 ± 0.057	2.77 ± 0.066	2.61 ± 0.041
VRLRSNVIKTGIRIISL [RPN3]	2.27 ± 0.21	2.35 ± 0.14	2.22 ± 0.23	2.44 ± 0.065
KSKILRKVVFPFQLDVA [UBP6]	2.23 ± 0.09	2.39 ± 0.089	2.65 ± 0.11	2.44 ± 0.057
VKAFLSIFEDAIKELNY [NUT1]	2.04 ± 0.091	1.73 ± 0.087	2.55 ± 0.19	2.62 ± 0.19
DELELEDAIHIALLTLK [PRE8]	3.04 ± 0.076	3.11 ± 0.065	3.07 ± 0.062	3.15 ± 0.087
NAELLDYLFHLLISLNI [YLR018C/POM34]	1.79 ± 0.044	1.37 ± 0.031	1.21 ± 0.068	1.28 ± 0.027
DVMDELITSSARKELPI [SIR3]	–	2.26 ± 0.13	2.7 ± 0.27	2.42 ± 0.18
YSVLLESPLSVAIQQGD [YML103C/NUP188]	1.23 ± 0.091	1.16 ± 0.063	1.2 ± 0.17	1.19 ± 0.077
NFTSPTAVVNNAAPANV [SWI1]	2.86 ± 0.057	2.77 ± 0.08	2.69 ± 0.088	2.91 ± 0.053
